Consider four molecules from PMC9674577.

In one data set the target is RocC1-126 (Legionella pneumophila Paris, UniProt A0A3A6VMJ3 1-126). Nature of the data set: EMSA; […]; ITC: 25 mM HEPES pH 7.3, 150 mM NaCl, 10% glycerol, 1 mM TCEP, 25 C. Conditions: protein: recombinant; tags: GST removed by 3C protease; label: 5' 32P; hairpin, 5-nt 3' tail. Background: Mobility shift assays separate free from complexed probe on a gel.
Data set [1] addresses T1, RocC14-126 (Legionella pneumophila Paris, UniProt A0A3A6VMJ3 14-126). Kind of data set: EMSA; similar to 1-126; […]; ITC: 25 mM HEPES pH 7.3, 150 mM NaCl, 10% glycerol, 1 mM TCEP, 25 C. The following applies: protein: recombinant; tags: GST removed by 3C protease; label: 5' 32P; hairpin, 5-nt 3' tail.
For data set [2], the target named is T1, RocC14-126. Kind of data set: ITC; 1:1; […]; ITC: 25 mM HEPES pH 7.3, 150 mM NaCl, 10% glycerol, 1 mM TCEP, 25 C. The following applies: protein: recombinant; tags: GST removed by 3C protease. Background: ITC needs no label: the signal is the heat of the interaction.
Another data set deals with RocC24-126 (Legionella pneumophila Paris, UniProt A0A3A6VMJ3 24-126). Kind of data set: FP; […]; ITC: 25 mM HEPES pH 7.3, 150 mM NaCl, 10% glycerol, 1 mM TCEP, 25 C. Conditions: protein: recombinant; tags: GST removed by 3C protease; label: 5' FAM; hairpin, 5-nt 3' tail.
In the next data set the target is T2, FinO45-186 (Escherichia coli (F plasmid)?, UniProt P29367 45-186).
T2 sequence: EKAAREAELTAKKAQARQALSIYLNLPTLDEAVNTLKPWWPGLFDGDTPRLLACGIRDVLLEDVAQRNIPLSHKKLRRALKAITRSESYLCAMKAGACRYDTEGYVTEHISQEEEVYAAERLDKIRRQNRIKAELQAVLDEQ
The description is as above. The following applies: protein: recombinant; tags: GST removed by 3C protease; label: 5' FAM; hairpin, 5-nt 3' tail.

Data set [3] addresses T1, RocC14-126. Nature of the data set: ITC; little if any binding; […]; ITC: 25 mM HEPES pH 7.3, 150 mM NaCl, 10% glycerol, 1 mM TCEP, 25 C. The following applies: protein: recombinant; tags: GST removed by 3C protease; hairpin, 5-nt 3' tail.

Turning to GGGUGGGUCAAUUGGCGACACACUGAUUGGCCCUUUCU (structured_RNA) [RocRSL3 (IVT)], the binding result with RocC1-126 and with RocC14-126 [1] was “binds” in each case. As for GGCCCUUUCU (ssRNA) [10-nt single-stranded RNA], the binding signal with RocC14-126 [2] was ~19 fold weaker than RocR9bp-tet. For UGGGUCAAUUGGCGACACACUGAUUGGCCCUUUCU (structured_RNA) [FAM-RocRSL3 (5-nt tail)], the binding signal with RocC24-126 was ~3 fold weaker than RocC1-126. Besides, in the data set with FinO45-186, the binding result is given as “binds”. As to UGGGUCAAUUGGCGACACACUGAUUGGCCCUUUCU (structured_RNA, 3'-phosphate) [RocRP (RocRSL3 3'-phosphate)], the binding result in the data set with RocC14-126 [3] is reported as “no binding”.
